Laboratory results as given in the supplement of paper PMC10126150.
± gives the standard deviation of the averaged measurements.

System: ATP
Experiment: switch fluorescence ratio, 500 uM ATP over buffer (Cy3 cluster intensity, sum of 5 cycles each) (fold (ratio)); higher = stronger signal-on switching upon ATP binding; sequences stand for … in TCGTCGGCAGCGTCAGATGTGTATAAGAGACAGTTTTTTTTTTTTTTTTTTTTTTTTT…TC
Conditions: aptamer strand: ATP DNA aptamer (quencher-CACCTGGGGGAGTATTGCGGAGGAAGG + anchor), 100 nM annealed; ATP concentration: 500 uM
In short: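 Clusters carrying Cy3-labelled switching strands on a modified Illumina MiSeq flow-cell were annealed to 100 nM quencher-labelled ATP aptamer and imaged in selection buffer. They were imaged again after 15 min with 500 uM ATP at 22 °C, over five buffer/ATP cycles with NaOH stripping and re-annealing in between. For each cluster, the fluorescence ratio is the summed Cy3 intensity of the target cycles divided by that of the buffer cycles, averaged per switch-domain sequence. Clusters outside 100-1000 RFU were left out.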
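Further: ATP exposure 15 min at 22 °C before imaging.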

| Sequence | switch fluorescence ratio |
| --- | --- |
| TCTGGATTCA | 0.986 ± 0.027 |
| TTACTTCGTA | 1.06 ± 0.07 |
| TATGACGCGG | 0.9833 ± 0.0053 |
| TAGAGTTGGG | 0.986 ± 0.015 |
| TGATTTGGCA | 1.02 ± 0.0023 |
| TTTTTAGGCG | 0.978 ± 0.028 |
| TTTTACGCTT | 1.04 ± 0.017 |
| GGCCCGTCGG | 1.03 ± 0.0047 |
| ATGGGCTTAC | 1.2301 ± 0.00072 |
| GTTCGAAAAA | 0.961 ± 0.09 |
| AACCCAACGA | 1.27 ± 0.025 |
| GGGAATGATC | 1.01 ± 0.034 |
| GGCGGGGGTC | 1.01 ± 0.029 |
| AATAAGTTAA | 1 ± 0.026 |
| AGCCATGGCT | 0.9927 ± 0.0099 |
| GGGCATAGGT | 0.982 ± 0.018 |
| AGCTGGGTCC | 1.04 ± 0.041 |
| ATAATCTGGT | 0.9965 ± 0.0049 |
| AATAATAAGA | 1 ± 0.017 |
| GCAGGAAGGC | 1.089 ± 0.0071 |
| TTCTAGGCGG | 1.03 ± 0.029 |
| CGGGCCGGGC | 0.983 ± 0.029 |
| AGGGTGGTTT | 0.997 ± 0.02 |

| Sequence | switch fluorescence ratio |
| --- | --- |
| AGAGGGTTTT | 0.988 ± 0.031 |
| AGAGGCGTTA | 1.01 ± 0.025 |
| AGTTTGGTCA | 0.98 ± 0.021 |
| ACACGGCGGC | 1.07 ± 0.033 |
| CGGATGAGGC | 1.08 ± 0.018 |
| TTGAGAGTTG | 0.984 ± 0.046 |
| GGGCGGACGT | 0.969 ± 0.041 |
| GAATCTTAAA | 0.997 ± 0.026 |
| ATTTGGGTTT | 0.992 ± 0.027 |
| GAAACAGGCA | 0.963 ± 0.017 |
| CTAAAGACTC | 1.19 ± 0.046 |
| ATTGTTTTTG | 1.01 ± 0.026 |
| TCGAGGCGGG | 1.18 ± 0.21 |
| GGTGGAAGTA | 0.998 ± 0.064 |
| TGTGTATGGG | 1.19 ± 0.28 |
| GGGGGATGGT | 0.978 ± 0.035 |
| AAATTCTGGG | 0.996 ± 0.0075 |
| CAGAGGGGGC | 1.012 ± 0.0071 |
| ATGGGTTTAG | 0.994 ± 0.016 |
| TGTTAAAGTT | 0.9908 ± 0.0045 |
| TTTTGTTGGT | 1 ± 0.028 |
| GAGAGTATAT | 1.01 ± 0.012 |
| GATGTAAACG | 1.02 ± 0.026 |

| Sequence | switch fluorescence ratio |
| --- | --- |
| CACTCAGGGA | 1.04 ± 0.046 |
| TTATATTAG | 0.9817 ± 0.001 |
| GAATTAACAA | 0.999 ± 0.024 |
| TAAAACGCCC | 1.15 ± 0.04 |
| CGAGGGGTTT | 0.984 ± 0.059 |
| AATGGAATTT | 1.03 ± 0.066 |
| TAATGTATGT | 0.977 ± 0.018 |
| ATGCGGCATT | 1.03 ± 0.044 |
| TGGCGGGGCT | 0.9972 ± 0.0064 |
| GCATAGCAAT | 1.054 ± 0.003 |
| GTTTTGTAAA | 0.975 ± 0.026 |
| AGATCGCTTG | 0.975 ± 0.0019 |
| ACTTTTAGTT | 1.05 ± 0.018 |
| GGATTGATTA | 1.01 ± 0.032 |
| TGAATTTTTT | 0.993 ± 0.028 |
| AACTGTATAT | 1.15 ± 0.019 |
| ACAAAACTC | 1.27 ± 0.37 |
| GGGGCTTTAT | 0.992 ± 0.013 |
| AGTTTGCTTG | 0.993 ± 0.025 |
| GGGTAAAGTT | 1.01 ± 0.027 |
| CATATTGGAT | 1.02 ± 0.036 |
| GTTTGCTTAG | 0.986 ± 0.024 |
| TTAAAAGCTT | 1.05 ± 0.024 |

| Sequence | switch fluorescence ratio |
| --- | --- |
| AGACTTGTTA | 0.971 ± 0.021 |
| AGTCGCCCTG | 0.985 ± 0.05 |
| GCGGGATGCA | 0.993 ± 0.033 |
| CCGAGGGAGA | 1.25 ± 0.024 |
| AAAGGGGGC | 0.974 ± 0.067 |
| GGCGCGTGTC | 0.9945 ± 0.009 |
| ACTTGATTTT | 1.02 ± 0.015 |
| TGATAGTGAT | 0.988 ± 0.024 |
| ATAAAGTTTC | 1.03 ± 0.015 |
| CTAAGAGGCG | 0.988 ± 0.024 |
| ATGTTTTGTA | 1 ± 0.0053 |
| GGTTTGAGAA | 1.018 ± 0.0031 |
| TTTATTCGGT | 1.01 ± 0.074 |
| TAGTAATTTG | 1.01 ± 0.019 |
| GCGATTAGTT | 0.9711 ± 0.0012 |
| AGGGAATAAA | 1 ± 0.031 |
| GGTGTTGGTA | 0.974 ± 0.029 |
| CAAGGTTATG | 0.974 ± 0.013 |
| CTCGGCCACT | 2.26 ± 1.6 |
| TATTTGAAA | 1.05 ± 0.059 |
| CAGTCCCACG | 1.021 ± 0.0053 |
| TCTTAGGCGC | 1.03 ± 0.029 |
| TGTTTAAGTT | 1.02 ± 0.023 |

| Sequence | switch fluorescence ratio |
| --- | --- |
| TGGGGAGAAA | 1 ± 0.031 |
| TTGGGACCGT | 1 ± 0.0015 |
| TAGTTGTCCG | 1.02 ± 0.12 |
| GTTTTACTGA | 1.03 ± 0.021 |
| TGGGTTAAGT | 1 ± 0.021 |
| CACCGGGCCT | 1.02 ± 0.016 |
| TCTTGGGGAC | 1.14 ± 0.2 |
| AGGTTTGACA | 1.027 ± 0.0067 |
| AAATCGGGAA | 1.34 ± 0.44 |
| CGCAAAAGCA | 1.2 ± 0.027 |
| TCGATGCGTG | 1.01 ± 0.011 |
| GGTACTTAGG | 1.06 ± 0.031 |
| GATTGAATAT | 0.983 ± 0.032 |
| TTAAAAGGTT | 1.01 ± 0.029 |
| GTAGCATATT | 1.49 ± 0.011 |
| AGAAGTCGGA | 1 ± 0.011 |
| GACTTATTGG | 1.02 ± 0.032 |
| AAGTGGTTA | 0.981 ± 0.026 |
| AATAATTCTG | 0.984 ± 0.053 |
| GGTTTTGATT | 0.998 ± 0.0089 |
| TTTCCAGGGA | 1.034 ± 0.0029 |
| AACTTGGCGC | 1.01 ± 0.057 |
| TTACTGGGGA | 1.04 ± 0.011 |

| Sequence | switch fluorescence ratio |
| --- | --- |
| GTTAGAGGGT | 1.01 ± 0.021 |
| AATACTACTA | 1.05 ± 0.053 |
| CAGTGATAAA | 1.008 ± 0.0066 |
| AGATTAGCGC | 0.9812 ± 0.0063 |
| GATTCTTGAA | 1.01 ± 0.22 |
| TTTTTGTTTT | 1 ± 0.035 |
| TTTGGGTGAG | 0.993 ± 0.023 |
| CGTAGAAAAG | 0.998 ± 0.025 |
| TAGACGAAAA | 1.03 ± 0.024 |
| CCTCAATGGT | 1.39 ± 0.045 |
| TAGGTGGGCA | 0.987 ± 0.054 |
| ATTTTGGGTT | 1 ± 0.022 |
| TCCGGAGAAT | 1.79 ± 1.1 |
| TGCGTGTGTC | 1.05 ± 0.024 |
| GACAGATCCC | 0.982 ± 0.014 |
| AATTTAGGTT | 0.993 ± 0.03 |
| GGGTTTCATG | 0.995 ± 0.024 |
| AGAGTTGTTA | 0.996 ± 0.013 |
| GTTGTTAGCG | 1 ± 0.037 |
| TAGAATGGC | 1.01 ± 0.054 |
| AGGTTTTCGT | 1.028 ± 0.0039 |
| CGGTGAGGGA | 0.978 ± 0.044 |
| TTTAAAGACT | 1.01 ± 0.056 |

| Sequence | switch fluorescence ratio |
| --- | --- |
| GTCTATCTCT | 1.013 ± 0.0093 |
| GCCGAGCCGG | 0.972 ± 0.011 |
| GATGAAGTTG | 0.971 ± 0.029 |
| ACGGAGGATA | 1.11 ± 0.014 |
| AAGGAGGGTG | 1.02 ± 0.019 |
| CGTGTTTTAG | 1 ± 0.033 |
| TTTCATCTCT | 1 ± 0.04 |
| GATGATCTTT | 0.966 ± 0.014 |
| ACGCAGAACG | 1.36 ± 0.074 |
| GGTGTGGCGA | 1.03 ± 0.11 |
| AAACGGTATT | 1.09 ± 0.083 |
| GTACCCTCAA | 1.03 ± 0.024 |
| GGTAAAGGTA | 1 ± 0.029 |
| AGCGTCAGTA | 0.999 ± 0.014 |
| ATTCGGTAGT | 1 ± 0.013 |
| TATTTATATT | 1.06 ± 0.029 |
| ATCGGTGGGG | 0.963 ± 0.019 |
| ATGGTTTGTA | 0.9744 ± 0.0088 |
| TAATTTGCGT | 1 ± 0.019 |
